Assay results: patent US20230416396A1 (Regeneron, published 2023)

Tests used:
[1] = target: T1, human 4-1BB on cells (human, UniProt Q07011 24-255); assay: cell-based or functional assay
[2] = target: T1, human 4-1BB on cells; assay: cell-based or functional assay; remark: listed apart in the source
[3] = target: T1, human 4-1BB on cells; assay: cell-based or functional assay; remark: listed apart in the source
[4] = target: T1, human 4-1BB on cells; assay: cell-based or functional assay; remark: listed apart in the source
[5] = target: T1, human 4-1BB on cells; assay: flow cytometry on HEK293/h4-1BB cells, APC anti-human secondary
Method: (§1) The ability of the multispecific antigen binding molecules to bind cells was assessed using flow cytometry. Cell lines were chosen to determine the ability of both the anti-CD38 and anti-4-1BB arms to bind their targets. […] Binding was detected by using a labeled secondary antibody and measuring fluorescence on a flow cytometer.
HEK293 and HEK293/4-1BB cells were lifted with trypsin, washed and resuspended in stain buffer (2% FBS in PBS) and added to wells of a 96 well V-bottom plate (3×10⁵ cells/well). A 1:5, 9-point, dose titration of test antibodies was diluted in stain buffer and added to cells to a final concentration ranging from 1.3 pM to 100 nM (a “no antibody” control was included as the ninth point ([…]) labeled as “secondary only”). Cells and antibodies were incubated for 30 min on ice and then washed in stain buffer. Cells were resuspended in 2 ug/ml allophycocyanin (APC) conjugated goat-anti human secondary antibody and incubated for 30 min on ice. Cells were then washed and resuspended in viability dye (according to the manufacturer's protocol) and incubated for 30 min on ice. Cells were then washed with stain buffer and resuspended in 2% PFA for 30 min on ice. After washing, cells were filtered and analyzed by flow cytometry to determine the geometric mean fluorescence intensity (gMFI), which was subsequently plotted using GraphPad Prism software. EC₅₀ values of the antibodies were determined from a 4-parameter logistic equation over a 9-point dose response curve (including secondary only control).

[6] = target: T2, human CD38 endogenously expressed on MOLP8 cells (human, UniProt P28907 1-300); assay: flow cytometry on MOLP8 cells (endogenous hCD38), APC anti-human secondary
T2 construct: whole, on cells; also called hCD38
Method: as §1
HEK293 cells were lifted with trypsin, washed and resuspend in stain buffer (2% FBS in PBS). MOLP8 cells were washed and resuspended in stain buffer. Cells were added to wells of a 96 well V-bottom plate (3×10⁵ cells/well). A 1:4, 9-point, dose titration of test antibodies was diluted in stain buffer and added to cells to a final concentration ranging from 610 fM to 10 nM (a “no antibody” control was included as the ninth point (153fM), labeled as “secondary only”). Cells and antibodies were incubated for 30 min on ice and then washed in stain buffer. Cells were resuspended in 2 ug/ml allophycocyanin (APC) conjugated goat-anti human secondary antibody and incubated for 30 min on ice. Cells were then washed and resuspended in viability dye (according to the manufacturer's protocol) and incubated for 30 min on ice. Cells were then washed with stain buffer and resuspended in 2% PFA for 30 min on ice. After washing, cells were filtered and analyzed by flow cytometry to determine the geometric mean fluorescence intensity (gMFI), which was subsequently plotted using GraphPad Prism software. EC₅₀ values of the antibodies were determined from a 4-parameter logistic equation over a 9-point dose response curve (including secondary only control, representing the ninth point).

[7] = target: T3, human 4-1BB expressed with a C-terminal myc-myc-hexahistidine tag (human, UniProt Q07011 24-186); assay: SPR Biacore 8k, antibody captured by anti-human Fc, h4-1BB.mmH as analyte, 25 C
T3 construct: also called h4-1BB.mmH; REGN3584; not shown: C-terminal myc-myc-hexahistidine tag
Method: (§2) Equilibrium dissociation constants (KD values) for human 4-1BB expressed with a C-terminal myc-myc-hexahistidine tag (h4-1BB.mmH, REGN3584) or human 4-1BB expressed with a C-terminal murine Fc tag (h4-1BB.mFc, REGN3585) binding to purified anti-CD38×4-1BB 1+2 antibodies were determined using a real-time surface plasmon resonance biosensor using a Biacore 8k instrument. The CM5 Biacore sensor surface was derivatized by amine coupling with a monoclonal mouse anti-human Fc antibody (REGN2567). All Biacore binding studies were performed in a buffer composed of 0.01M HEPES pH 7.4, 0.15M NaCl, 3 mM EDTA, 0.05% v/v Surfactant P20 (HBS-EP running buffer). […] Antibody-reagent association was monitored for 5 minutes while dissociation in HBS-EP running buffer was monitored for 10 minutes. At the end of each cycle, the anti-CD38×4-1BB 1+2 antibody capture surface was regenerated using a 10 second injection of 20 mM phosphoric acid. All binding kinetics experiments were performed at 25° C.
(§3) Kinetic association (kₐ) and dissociation (kd) rate constants were determined by fitting the real-time sensorgrams to a 1:1 binding model using Cytiva Insight curve fitting software. Binding dissociation equilibrium constants (KD) and dissociative half-lives (t/2) were calculated from the kinetic rate constants as: […]

[8] = target: T4, human 4-1BB expressed with a C-terminal murine Fc tag (human, UniProt Q07011 24-186); assay: SPR Biacore 8k, antibody captured by anti-human Fc, h4-1BB.mFc as analyte, 25 C
T4 construct: also called h4-1BB.mFc; REGN3585; not shown: C-terminal murine Fc tag
Method: as §2, §3

[9] = target: T4, human 4-1BB expressed with a C-terminal …; assay: SPR Biacore 4000, h4-1BB.mFc captured by anti-mouse Fc, antibody as analyte, 25 C
Method: Equilibrium dissociation constants (KD values) for human 4-1BB expressed with a C-terminal murine Fc tag (h4-1BB.mFc, REGN3585) binding to purified anti-CD38×4-1BB 1+2 antibodies were determined using a real-time surface plasmon resonance biosensor using a Biacore 4000 instrument. […] All Biacore binding studies were performed in a buffer composed of 0.01M HEPES pH 7.4, 0.15M NaCl, 3 mM EDTA, 0.05% v/v Surfactant P20 (HBS-EP running buffer). Different concentrations of CD38×4-1BB 1+2 constructs prepared in HBS-EP running buffer (ranging from 100 to 6.25 nM in 4-fold serial dilutions) were injected over the h4-1BB.mFc (REGN3585) captured surface at a flow rate of 30 μL/minute. Antibody-reagent association was monitored for 5 minutes while dissociation in HBS-EP running buffer was monitored for 10 minutes. At the end of each cycle, the h4-1BB.mFc capture surface was regenerated using a 40 sec injection of 10 mM glycine, pH 1.5. All binding kinetics experiments were performed at 25° C.
as §3

T4 sequence (Q07011 24-186 limits assumed): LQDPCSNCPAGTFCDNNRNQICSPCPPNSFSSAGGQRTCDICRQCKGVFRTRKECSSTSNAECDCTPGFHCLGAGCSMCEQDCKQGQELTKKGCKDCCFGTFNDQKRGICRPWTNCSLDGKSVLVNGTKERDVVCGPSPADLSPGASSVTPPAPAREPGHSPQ
T3 sequence (Q07011 24-186 limits assumed): as above
T1 sequence (Q07011 24-255): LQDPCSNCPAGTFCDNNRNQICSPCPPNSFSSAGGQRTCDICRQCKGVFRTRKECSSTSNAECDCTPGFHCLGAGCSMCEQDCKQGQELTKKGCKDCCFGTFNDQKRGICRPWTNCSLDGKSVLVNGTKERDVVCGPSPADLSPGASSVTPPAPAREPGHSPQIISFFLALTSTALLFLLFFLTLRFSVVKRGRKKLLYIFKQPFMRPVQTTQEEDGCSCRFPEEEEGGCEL

B1: REGN7650 (bispecific antibody, human IgG4 S228P, kappa)
heavy 1: EVQLVESGGGLVQPGGSLRLPCAASGFTFSSYAMSWVRQAPGKGLEWVADISGSGGDTYYVDSVKGRFTISRDNSKNTLYLQMNSLRIEDTAVYYCAKGRWHWNYEGFDIWGQGTMVTVSSASTKGPSVFPLAPCSRSTSESTAALGCLVKDYFPEPVTVSWNSGALTSGVHTFPAVLQSSGLYSLSSVVTVPSSSLGTKTYTCNVDHKPSNTKVDKRVESKYGPPGGGGSGGGGSGGGGSQVQLVESGGDVVQPGRSLRLSCTASGFTFSSFGMHWVRQAPGKGLEWVTFLSYDGSYKYYADSVKGRFTISRDNSKNTLYLQMNSLRAEDTAIFYCARDWLDYWGQGTLVTVSSASTKGPSVFPLAPCSRSTSESTAALGCLVKDYFPEPVTVSWNSGALTSGVHTFPAVLQSSGLYSLSSVVTVPSSSLGTKTYTCNVDHKPSNTKVDKRVESKYGPPCPPCPAPPVAGPSVFLFPPKPKDTLMISRTPEVTCVVVDVSQEDPEVQFNWYVDGVEVHNAKTKPREEQFNSTYRVVSVLTVLHQDWLNGKEYKCKVSNKGLPSSIEKTISKAKGQPREPQVYTLPPSQEEMTKNQVSLTCLVKGFYPSDIAVEWESNGQPENNYKTTPPVLDSDGSFFLYSRLTVDKSRWQEGNVFSCSVMHEALHNRFTQKSLSLSPGK
heavy 2: EVQLVESGGGLVQPGRSLRLSCAASGFTFDDYAMHWVRQAPGKGLEWVSGISWKSDNIGYADSVKGRFTISRDNAKNSLYLQMNSLRAEDTALYYCAKALGGWKFDYYYGMDVWGQGTTVTVSSASTKGPSVFPLAPCSRSTSESTAALGCLVKDYFPEPVTVSWNSGALTSGVHTFPAVLQSSGLYSLSSVVTVPSSSLGTKTYTCNVDHKPSNTKVDKRVESKYGPPCPPCPAPPVAGPSVFLFPPKPKDTLMISRTPEVTCVVVDVSQEDPEVQFNWYVDGVEVHNAKTKPREEQFNSTYRVVSVLTVLHQDWLNGKEYKCKVSNKGLPSSIEKTISKAKGQPREPQVYTLPPSQEEMTKNQVSLTCLVKGFYPSDIAVEWESNGQPENNYKTTPPVLDSDGSFFLYSRLTVDKSRWQEGNVFSCSVMHEALHNHYTQKSLSLSLGK
light: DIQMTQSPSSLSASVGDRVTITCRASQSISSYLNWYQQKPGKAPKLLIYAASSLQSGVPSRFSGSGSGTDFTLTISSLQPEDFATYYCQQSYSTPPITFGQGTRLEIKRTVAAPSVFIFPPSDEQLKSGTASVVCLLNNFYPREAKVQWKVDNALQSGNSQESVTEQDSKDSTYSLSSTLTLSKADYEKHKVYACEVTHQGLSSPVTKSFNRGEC
notes: 1+2 format, hIgG4P-PVA; also called CD38x4-1BB (1 + 2); 26812P2 x 25898P2 (IN) + 35321P2 (OUT)
[1]
  EC50 of IL-2 release, T cells + HEK293/CD20/CD38 + REGN1979: 0.014 nM
  EC50 of IL-2 release, T cells + MOLP-8 + REGN5458: 0.0317 nM
  MAX IL-2 release, T cells + HEK293/CD20 + REGN1979: 184 pg/mL
  MAX IL-2 release, T cells + HEK293/CD20/CD38 + IsoC: 10 pg/mL
  MAX IL-2 release, T cells + HEK293/CD20/CD38 + REGN1979: 2720 pg/mL
  MAX IL-2 release, T cells + MOLP-8 + IsoC: 288 pg/mL
  MAX IL-2 release, T cells + MOLP-8 + REGN5458: 553 pg/mL
[2]
  EC50 of luciferase activity, HEK293/NFkB-Luc/h4-1BB reporter + OPM2: 0.0989 nM
  MAX luciferase activity, HEK293/NFkB-Luc/h4-1BB reporter + HEK293/CD20: 1.5e+06 RLU
  MAX luciferase activity, HEK293/NFkB-Luc/h4-1BB reporter + HEK293/CD20/CD38: 2.3e+06 RLU
  MAX luciferase activity, HEK293/NFkB-Luc/h4-1BB reporter + MOLP-8: 2.4e+06 RLU
  MAX luciferase activity, HEK293/NFkB-Luc/h4-1BB reporter + OPM2: 2e+06 RLU
[3]
  EC50 of IL-2 release, T cells + NALM6 + Cemiplimab: 0.155 nM
  EC50 of IL-2 release, T cells + NALM6 + IgG4P: 0.179 nM
  EC50 of IL-2 release, T cells + NALM6/PD-L1 + Cemiplimab: 0.283 nM
  EC50 of IL-2 release, T cells + NALM6/PD-L1 + IgG4P: 0.228 nM
[4]
  EC50 of IFNγ release, T cells + NALM-6 + Cemiplimab: 0.156 nM
[5]
  EC50: 0.997 nM
  MAX gMFI: 1e+06 gMFI
[6]
  MAX gMFI: 140000 gMFI
[7]
  100 nM h4-1BB.mmH Bind (RU): 41.9 RU
  Kd: 20.4 nM
  koff: 0.00535 s⁻¹
  kon: 262000 M⁻¹ s⁻¹
  t½: 2.2 min
[8]
  100 nM h4-1BB.mFc Bind (RU): 152 RU
  Kd: 1.2 nM
  koff: 0.000122 s⁻¹
  kon: 102000 M⁻¹ s⁻¹
  t½: 1.58 h
[9]
  100 nM Ab Bind (RU): 266 RU
  Kd: 0.797 nM
  koff: 0.000169 s⁻¹
  kon: 212000 M⁻¹ s⁻¹
  t½: 1.14 h
